From patent US20260159607A1

Columns and labels:
[1] = biological target: human DCLK1-CAR (on transduced T cells); experiment: flow cytometry of CAR-transduced T cells stained with biotinylated DCLK1 protein (FL2-H), gate 'stained'; controls: T cells 3.19% (small print 3.18%), mock 3.17%
[2] = biological target: mouse DCLK1-CAR (on transduced T cells); experiment: as above

% stained [1]: 2.73% | % stained [2]: 11.6%
Substance: Biotin-labeled DCLK1 (from UniProt O15075 1-740)
